B1: NarI-G1 mono-FAAF 55-mer (dsDNA)
DNA 1: CCACTCCTATCCACCATCCATCTTACTCTCGGCGCCATCACCACTCACCACCACA
DNA 2: TGTGGTGGTGAGTGGTGATGGCGCCGAGAGTAAGATGGATGGTGGATAGGAGTGG
modifications: dG-FAAF at G31 (G1) of strand 1
B2: NarI-G1G2 di-FAAF 55-mer (dsDNA)
DNA 1: B1 DNA 1
DNA 2: B1 DNA 2
modifications: dG-FAAF at G31 and G32 (G1, G2) of strand 1
B3: NarI-G2 mono-FAAF 55-mer (dsDNA)
DNA 1: B1 DNA 1
DNA 2: B1 DNA 2
modifications: dG-FAAF at G32 (G2) of strand 1
B4: NarI-G2G3 di-FAAF 55-mer (dsDNA)
DNA 1: B1 DNA 1
DNA 2: B1 DNA 2
modifications: dG-FAAF at G32 and G34 (G2, G3) of strand 1
B5: NarI-G1G3 di-FAAF 55-mer (dsDNA)
DNA 1: B1 DNA 1
DNA 2: B1 DNA 2
modifications: dG-FAAF at G31 and G34 (G1, G3) of strand 1
B6: NarI-G3 mono-FAAF 55-mer (dsDNA)
DNA 1: B1 DNA 1
DNA 2: B1 DNA 2
modifications: dG-FAAF at G34 (G3) of strand 1

target: T1, XPC-RAD23B (Homo sapiens, UniProt Q01831;P54727 1-940;1-409); assay: SPR; 5 mM Mg2+; SPR: HBS-P+ (10 mM HEPES, 150 mM NaCl, 0.05% P20), 5 mM MgCl2, 1 mM DTT, 100 ug/mL BSA (+0.5 mM ATP for UvrA), pH and temperature not stated; EMSA: 20 mM Hepes-KOH pH 7.9, 75 mM KCl, 5 mM MgCl2, 1 mM DTT, 5% glycerol, 100 ug/mL BSA, 30 C; conditions: protein: recombinant; copies: 1;1; label: 5'-biotin on strand 1; blunt
T1 sequence (Q01831 whole entry, chain 1 of 2): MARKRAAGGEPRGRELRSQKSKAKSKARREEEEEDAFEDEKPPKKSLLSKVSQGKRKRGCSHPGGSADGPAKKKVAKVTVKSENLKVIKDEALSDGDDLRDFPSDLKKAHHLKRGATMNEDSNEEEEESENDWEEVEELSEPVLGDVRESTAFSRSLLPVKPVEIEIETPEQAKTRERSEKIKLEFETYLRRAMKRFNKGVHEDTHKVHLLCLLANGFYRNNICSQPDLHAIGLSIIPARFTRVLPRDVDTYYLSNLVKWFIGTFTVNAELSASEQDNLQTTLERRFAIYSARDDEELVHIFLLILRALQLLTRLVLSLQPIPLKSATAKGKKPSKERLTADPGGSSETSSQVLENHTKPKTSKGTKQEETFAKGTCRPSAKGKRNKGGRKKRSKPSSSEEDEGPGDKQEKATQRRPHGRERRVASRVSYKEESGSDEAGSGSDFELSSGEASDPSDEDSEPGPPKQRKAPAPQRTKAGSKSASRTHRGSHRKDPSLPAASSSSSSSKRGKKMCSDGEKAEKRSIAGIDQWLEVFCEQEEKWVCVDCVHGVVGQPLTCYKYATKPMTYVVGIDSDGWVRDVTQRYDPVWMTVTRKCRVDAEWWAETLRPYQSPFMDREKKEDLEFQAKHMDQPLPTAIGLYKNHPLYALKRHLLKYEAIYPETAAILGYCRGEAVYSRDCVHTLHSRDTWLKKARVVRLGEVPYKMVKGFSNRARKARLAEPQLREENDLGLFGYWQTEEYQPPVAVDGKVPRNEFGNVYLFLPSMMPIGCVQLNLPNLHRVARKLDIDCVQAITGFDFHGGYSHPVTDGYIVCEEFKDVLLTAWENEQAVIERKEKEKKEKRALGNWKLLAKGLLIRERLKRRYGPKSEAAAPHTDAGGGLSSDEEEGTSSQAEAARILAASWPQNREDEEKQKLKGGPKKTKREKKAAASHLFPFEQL
T1 sequence (P54727 whole entry, chain 2 of 2): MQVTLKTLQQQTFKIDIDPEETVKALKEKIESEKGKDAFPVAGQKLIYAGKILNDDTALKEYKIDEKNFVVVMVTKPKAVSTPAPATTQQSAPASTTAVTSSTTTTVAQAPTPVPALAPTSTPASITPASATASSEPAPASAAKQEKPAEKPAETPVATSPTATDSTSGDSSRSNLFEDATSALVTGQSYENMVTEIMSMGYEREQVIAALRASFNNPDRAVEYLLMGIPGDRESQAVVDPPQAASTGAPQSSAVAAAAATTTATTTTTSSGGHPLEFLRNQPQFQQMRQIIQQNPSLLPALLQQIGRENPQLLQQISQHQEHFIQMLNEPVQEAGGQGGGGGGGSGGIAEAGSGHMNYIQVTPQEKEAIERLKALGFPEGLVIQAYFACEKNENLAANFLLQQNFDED

Binder	Kd
B1	1.8 nM
B2	0.076 nM
B3	0.9 nM
B4	0.0042 nM
B5	0.016 nM

target: T1, XPC-RAD23B; assay: SPR; 5 mM Mg2+; error as printed is 0.01e-9; SPR: HBS-P+ (10 mM HEPES, 150 mM NaCl, 0.05% P20), 5 mM MgCl2, 1 mM DTT, 100 ug/mL BSA (+0.5 mM ATP for UvrA), pH and temperature not stated; EMSA: 20 mM Hepes-KOH pH 7.9, 75 mM KCl, 5 mM MgCl2, 1 mM DTT, 5% glycerol, 100 ug/mL BSA, 30 C; conditions: protein: recombinant; copies: 1;1; label: 5'-biotin on strand 1; blunt

Binder	Kd
B6	1.1 nM

target: T2, UvrA (UniProt P0A698 1-940); assay: SPR; 0.5 mM ATP, 5 mM Mg2+; SPR: HBS-P+ (10 mM HEPES, 150 mM NaCl, 0.05% P20), 5 mM MgCl2, 1 mM DTT, 100 ug/mL BSA (+0.5 mM ATP for UvrA), pH and temperature not stated; EMSA: 20 mM Hepes-KOH pH 7.9, 75 mM KCl, 5 mM MgCl2, 1 mM DTT, 5% glycerol, 100 ug/mL BSA, 30 C; conditions: protein: recombinant; chain copies: 2; label: 5'-biotin on strand 1; blunt
T2 sequence: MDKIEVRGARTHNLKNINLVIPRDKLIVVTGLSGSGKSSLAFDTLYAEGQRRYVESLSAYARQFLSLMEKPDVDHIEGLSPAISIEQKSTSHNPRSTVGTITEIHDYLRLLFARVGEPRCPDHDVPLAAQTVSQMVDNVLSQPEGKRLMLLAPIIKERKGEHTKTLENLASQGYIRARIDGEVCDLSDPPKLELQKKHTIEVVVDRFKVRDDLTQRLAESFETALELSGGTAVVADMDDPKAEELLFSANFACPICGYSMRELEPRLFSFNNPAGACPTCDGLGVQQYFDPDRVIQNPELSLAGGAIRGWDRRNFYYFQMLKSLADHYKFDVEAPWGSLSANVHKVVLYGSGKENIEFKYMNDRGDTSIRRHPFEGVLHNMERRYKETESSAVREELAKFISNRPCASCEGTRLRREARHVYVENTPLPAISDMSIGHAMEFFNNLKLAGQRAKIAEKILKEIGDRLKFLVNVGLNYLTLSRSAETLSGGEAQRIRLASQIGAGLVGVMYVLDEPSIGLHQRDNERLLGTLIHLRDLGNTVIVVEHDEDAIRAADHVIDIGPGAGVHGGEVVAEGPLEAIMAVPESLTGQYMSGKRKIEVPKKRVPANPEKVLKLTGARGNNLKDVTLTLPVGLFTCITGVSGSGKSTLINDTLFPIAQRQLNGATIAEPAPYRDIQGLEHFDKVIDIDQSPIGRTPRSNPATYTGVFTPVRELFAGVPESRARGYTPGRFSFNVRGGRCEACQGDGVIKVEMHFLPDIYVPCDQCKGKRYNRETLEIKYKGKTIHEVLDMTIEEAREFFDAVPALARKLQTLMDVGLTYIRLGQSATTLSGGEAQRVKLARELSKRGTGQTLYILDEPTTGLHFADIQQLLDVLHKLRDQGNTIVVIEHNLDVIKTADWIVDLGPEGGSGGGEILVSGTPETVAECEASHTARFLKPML

Binder	Kd
B1	1.3 nM
B6	3.9 nM
B2	0.49 nM
B3	2.4 nM
B4	0.5 nM
B5	0.27 nM
